In patent US7772181B2, “Personal care compositions comprising modified variant Bowman Birk Protease Inhibitors” (Danisco US Inc., priority 2008, dated 2010):
Substitutions are numbered along the chain they refer to. Names and notes keep the numbering of the source. Blank lines part the entries; values can stand above or below the molecule they belong to.

Target: T1, bovine pancreatic trypsin (Bos taurus, UniProt P00760)
T1 construct: purchased Worthington (Worthington Biochemical Corp.)
T1 sequence (P00760 24-246): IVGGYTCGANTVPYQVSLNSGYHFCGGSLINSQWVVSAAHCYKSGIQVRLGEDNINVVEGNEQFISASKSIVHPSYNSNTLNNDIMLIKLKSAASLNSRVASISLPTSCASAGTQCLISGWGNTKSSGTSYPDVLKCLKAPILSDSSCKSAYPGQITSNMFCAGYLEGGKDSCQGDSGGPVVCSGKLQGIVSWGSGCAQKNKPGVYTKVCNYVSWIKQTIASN
Test: Shake flask screen: trypsin inhibition after growth, 2-mercaptoethanol activation and acid/heat treatment
Format: biochemical
Details: for trypsin inhibitory activity after activation: alternative scaffolds compared with BBIt-AV
Experimental: To increase expression, the gene copy of the selected clones was amplified by sequentially streaking colonies on Luria agar plates with 25 μg/ml chloramphenicol until the growth rate was similar to growth on Luria agar plates without chloramphenicol. Cultures of the selected variants and controls were grown in 3 ml Luria broth with 25 μg/ml chloramphenicol in 15 ml tubes for ˜10 h. These cultures (30 μl) were then used to inoculate 30 ml of MBD medium in 250 ml baffled shake flasks and grown at 37° C. and 225 rpm for ˜60 h.
For selection of the variants with the best yields, the culture broths were processed as follows. The broth was first activated by mixing 20 ml of broth with 20 ml of 0.25 M glycine buffer (pH 9.3) and the pH was adjusted to 9.0 with 50% NaOH. Then, 2-mercaptoethanol was added to the diluted cultures to a final concentration of 2 mM and the cultures were incubated overnight at room temperature with gentle shaking. The BBIt-AV moiety was then cleaved from the fusion protein by acid/heat treatment, which was accomplished by first adjusting the pH of the activated broth to pH 1.9-2.0 with sulfuric acid, and followed by incubation at 60° C. for 16 hours, with shaking. The BBIt-AV-BCE fusion protein and the BCE catalytic domain are not soluble at pH 2, whereas the free BBI species is soluble. After the cleavage reaction, the insoluble material was removed by centrifugation (5 min. at 3,000 rpm) and the supernatant was analyzed for trypsin inhibitory activity as described above. The BBI activity was also determined for the starting material and for the samples taken after activation. The BCE activity of the starting material was also determined as described above. The BBIt-AV:BCE activity ratios were then calculated for each step in process. The modified BBIt-AVs produced at the highest yields following the acid/heat treatment were selected for further study.

B1: BBIdb-AV: BBdb with CK37281 replacing the second protease inhibitory loop, SEQ ID NO:452 (protein)
chain: DPSESSKPCCDQCACTKSIPPQCRCTDVRLNSCHSACSSCACYNLYGWTCVCVDMKDFCYEPCK
modifications: synthetic BBdb-AV sequence
- inhibitory activities after acid/heat treatment relative to BBIt-AV (alternative scaffolds): higher inhibitory activities after acid/heat treatment
- trypsin inhibitory activity after activation: greater than that of the BBIt-AV inhibitor but less than that of the BBItc-AV inhibitor

B2: BBIsb3-AV: BBsb3 with CK37281 replacing the second protease inhibitory loop, SEQ ID NO:453 (protein)
chain: DPDDEYSKPCCDLCMCTRSMPPQCSCEDIRLNSCHSDCKSCACYNLYGWTCRCLDTNDFCYKPCKSRDD
modifications: synthetic BBsb3-AV sequence
- activation with reducing agent (alternative scaffolds): did not activate with reducing agent
- trypsin inhibitory activity after activation: very low trypsin inhibitory activity

B3: BBIt-AV-4D13 insert -A13I-L29P-A40K-F50T-V52A: modified variant BBPI, SEQ ID NO:413 (protein)
chain: DPDDEPSKPCCDPDPDDESSKPCCDQCICTKSNPPQCRCSDMRPNSCHSACKSCKCYNLYGWTCTCADITDFCYEPCKPSE
modifications: synthetic BBPI sequence
- yield after acid/heat treatment relative to BBIt-AV-A13I-L29P-A40K-F50T-V52A (SEQ ID NO:601): slightly better yields

B4: BBIt-AV-A13I-M27R-L29P-A40K-F50T-V52A: modified variant BBPI, SEQ ID NO:619 (protein)
chain: DPDDESSKPCCDQCICTKSNPPQCRCSDRRPNSCHSACKSCKCYNLYGWTCTCADITDFCYEPCKPSE
modifications: synthetic BBPI variant
- yield after acid/heat treatment relative to BBIt-AV-A13I-L29P-A40K-F50T-V52A (SEQ ID NO:601): somewhat less

B6: BBIt-AV-A13I-S25R-L29P-S31A-A40K-F50T-V52A: modified variant BBPI, SEQ ID NO:617 (protein)
chain: B4 chain with S27R, R29M, S33A
modifications: synthetic BBPI variant
- yield after acid/heat treatment relative to BBIt-AV-A13I-L29P-A40K-F50T-V52A (SEQ ID NO:601): significantly better yields

B7: BBIt-AV-S4V-A13I-L29P-A40K-F50T-V52A: modified variant BBPI, SEQ ID NO:612 (protein)
chain: B4 chain with S6V, R29M
modifications: synthetic BBPI variant
- yield after acid/heat treatment relative to BBIt-AV-A13I-L29P-A40K-F50T-V52A (SEQ ID NO:601): significantly lower yields

B8: BBIt-AV-A13I-L29P-S31A-A40K-F50T-V52A: modified variant BBPI, SEQ ID NO:621 (protein)
chain: B4 chain with R29M, S33A
modifications: synthetic BBPI variant
- yield after acid/heat treatment relative to BBIt-AV-A13I-L29P-A40K-F50T-V52A (SEQ ID NO:601): somewhat less

B13: BBIt-AV-Q11G-A13I-L29P-A40K-F50T-V52A: modified variant BBPI, SEQ ID NO:614 (protein)
chain: B4 chain with Q13G, R29M
modifications: synthetic BBPI variant
- yield after acid/heat treatment relative to BBIt-AV-A13I-L29P-A40K-F50T-V52A (SEQ ID NO:601): significantly lower yields

B14: BBIt-AV-A13I-S25R-L29P-A40K-F50T-V52A: modified variant BBPI, SEQ ID NO:616 (protein)
chain: B4 chain with S27R, R29M
modifications: synthetic BBPI variant
- yield after acid/heat treatment relative to BBIt-AV-A13I-L29P-A40K-F50T-V52A (SEQ ID NO:601): significantly better yields

B15: BBIt-AV-A13I-L29P-A40K-F50T-V52T: modified variant BBPI, SEQ ID NO:625 (protein)
chain: B4 chain with R29M, A54T
modifications: synthetic BBPI variant
- yield after acid/heat treatment relative to BBIt-AV-A13I-L29P-A40K-F50T-V52A (SEQ ID NO:601): somewhat less

B17: BBItc-AV: BBtc with CK37281 replacing the second protease inhibitory loop, SEQ ID NO:454 (protein)
chain: DPSSKWEACCDRCACTKSIPPQCHCADIRLNSCHSACESCACYNLYGWTCRCFDITDFCYKPCSG
modifications: synthetic BBtc-AV sequence
- inhibitory activities after acid/heat treatment relative to BBIt-AV (alternative scaffolds): higher inhibitory activities after acid/heat treatment
- trypsin inhibitory activity after activation: highest trypsin inhibitory activity after activation

B18: 4D13BBIt-AV: BBIt-AV with 13 amino acid 4D13 insert (SEQ ID NO:389) at the N-terminus, SEQ ID NO:390 (protein)
chain: DDEPSKPCCDPDPDDESSKPCCDQCACTKSNPPQCRCSDMRLNSCHSACKSCACYNLYGWTCFCVDITDFCYEPCKPSE
modifications: synthetic BBI sequence
- BBIt-AV:BCE activity ratio after acid/heat treatment (relative to unmodified BBIt-AV): higher

Next, values leading:

- yield after acid/heat treatment relative to BBIt-AV-A13I-L29P-A40K-F50T-V52A (SEQ ID NO:601): significantly better yields
B5: BBIt-AV-A13I-S25R-L29P-S31R-A40K-F50T-V52A: modified variant BBPI, SEQ ID NO:618 (protein)
chain: B4 chain with S27R, R29M, S33R
modifications: synthetic BBPI variant

- yield after acid/heat treatment relative to BBIt-AV-A13I-L29P-A40K-F50T-V52A (SEQ ID NO:601): slightly better yields
B9: BBIt-AV-A13L-L29P-A40K-F50T-V52A: modified variant BBPI, SEQ ID NO:615 (protein)
chain: B4 chain with I15L, R29M
modifications: synthetic BBPI variant

- yield after acid/heat treatment relative to BBIt-AV-A13I-L29P-A40K-F50T-V52A (SEQ ID NO:601): significantly better yields
B10: BBIt-AV-A13I-L29P-S31R-A40K-F50T-V52A: modified variant BBPI, SEQ ID NO:622 (protein)
chain: B4 chain with R29M, S33R
modifications: synthetic BBPI variant

- yield after acid/heat treatment relative to BBIt-AV-A13I-L29P-A40K-F50T-V52A (SEQ ID NO:601): significantly lower yields
B11: BBIt-AV-S5P-A13I-L29P-A40K-F50T-V52A: modified variant BBPI, SEQ ID NO:613 (protein)
chain: B4 chain with S7P, R29M
modifications: synthetic BBPI variant

- yield after acid/heat treatment relative to BBIt-AV-A13I-L29P-A40K-F50T-V52A (SEQ ID NO:601): slightly better yields
B12: BBIt-AV-A13I-L29P-A40K-F50K-V52A: modified variant BBPI, SEQ ID NO:624 (protein)
chain: B4 chain with R29M, T52K
modifications: synthetic BBPI variant

- yield after acid/heat treatment relative to BBIt-AV-A13I-L29P-A40K-F50T-V52A (SEQ ID NO:601): significantly lower yields
B16: BBIt-AV-A13I-L29K-A40K-F50T-V52A: modified variant BBPI, SEQ ID NO:620 (protein)
chain: B4 chain with R29M, P31K
modifications: synthetic BBPI variant
